Experimental findings from patent publication US10640547B2, “Immunotherapy against melanoma and other cancers” (IMMATICS BIOTECHNOLOGIES GMBH, priority 2016, dated 2020) are described below.

One assay concerns CD8+ T cells. Nature of the assay: In vitro immunogenicity: T-cell priming with artificial APCs loaded with peptide/MHC and anti-CD28, pMHC multimer readout. Format: cell-based, human. Particulars: Table 10A; HLA class I peptides. The text has this:
In order to obtain information regarding the immunogenicity of the TUMAPs of the present invention, the inventors performed investigations using an in vitro T-cell priming assay based on repeated stimulations of CD8+ T cells with artificial antigen presenting cells (aAPCs) loaded with peptide/MHC complexes and anti-CD28 antibody.
In order to perform in vitro stimulations by artificial antigen presenting cells loaded with peptide-MHC complex (pMHC) and anti-CD28 antibody, the inventors first isolated CD8+ T cells from fresh HLA-A*02 leukapheresis products via positive selection using CD8 microbeads (Miltenyi Biotec, Bergisch-Gladbach, Germany) of healthy donors obtained from the University clinics Mannheim, Germany, after informed consent.
PBMCs and isolated CD8+ lymphocytes were incubated in T-cell medium (TCM) until use consisting of RPMI-Glutamax (Invitrogen, Karlsruhe, Germany) supplemented with 10% heat inactivated human AB serum (PAN-Biotech, Aidenbach, Germany), 100 U/ml Penicillin/100 μg/ml Streptomycin (Cambrex, Cologne, Germany), 1 mM sodium pyruvate (CC Pro, Oberdorla, Germany), 20 μg/ml Gentamycin (Cambrex). 2.5 ng/ml IL-7 (PromoCell, Heidelberg, Germany) and 10 U/ml IL-2 (Novartis Pharma, Nürnberg, Germany) were also added to the TCM at this step.
Generation of pMHC/anti-CD28 coated beads, T-cell stimulations and readout was performed in a highly defined in vitro system using four different pMHC molecules per stimulation condition and 8 different pMHC molecules per readout condition.
The purified co-stimulatory mouse IgG2a anti human CD28 Ab 9.3 (Jung et al., 1987) was chemically biotinylated using Sulfo-N-hydroxysuccinimidobiotin as recommended by the manufacturer (Perbio, Bonn, Germany). Beads used were 5.6 μm diameter streptavidin coated polystyrene particles (Bangs Laboratories, Illinois, USA).
800.000 beads/200 μl were coated in 96-well plates in the presence of 4×12.5 ng different biotin-pMHC, washed and 600 ng biotin anti-CD28 were added subsequently in a volume of 200 μl. Stimulations were initiated in 96-well plates by co-incubating 1×10^6 CD8+ T cells with 2×10^5 washed coated beads in 200 μl TCM supplemented with 5 ng/ml IL-12 (PromoCell) for 3 days at 37° C. Half of the medium was then exchanged by fresh TCM supplemented with 80 U/ml IL-2 and incubating was continued for 4 days at 37° C. This stimulation cycle was performed for a total of three times. For the pMHC multimer readout using 8 different pMHC molecules per condition, a two-dimensional combinatorial coding approach was used as previously described (Andersen et al., 2012) with minor modifications encompassing coupling to 5 different fluorochromes. Finally, multimeric analyses were performed by staining the cells with Live/dead near IR dye (Invitrogen, Karlsruhe, Germany), CD8-FITC antibody clone SK1 (BD, Heidelberg, Germany) and fluorescent pMHC multimers. For analysis, a BD LSRII SORP cytometer equipped with appropriate lasers and filters was used. Peptide specific cells were calculated as percentage of total CD8+ cells. Evaluation of multimeric analysis was done using the FlowJo software (Tree Star, Oregon, USA). In vitro priming of specific multimer+CD8+ lymphocytes was detected by comparing to negative control stimulations.
As for “238 (KLLDKPEQFL; listed as Homo sapiens) [compound 238]”, the “Donors (in vitro immunogenicity)” value is recorded as “++ (20%-49% = ++)” and the “Wells (in vitro immunogenicity)” value is “+ (<20% = +)”. As for “241 (RLYTKLLNEA; listed as Homo sapiens) [compound 241]”, the “Donors (in vitro immunogenicity)” value is recorded as “++++ (≥70% = ++++)” and the “Wells (in vitro immunogenicity)” value is recorded as “+++ (50%-69% = +++)”. Take “243 (ALAGIVTNV; listed as Homo sapiens) [compound 243]”: the “Donors (in vitro immunogenicity)” value is recorded as “++++ (≥70% = ++++)” and the “Wells (in vitro immunogenicity)” value is recorded as “+ (<20% = +)”.

For the substance “247 (ALLNAILHSA; listed as Homo sapiens) [compound 247]”, the “Donors (in vitro immunogenicity)” value was “++++ (≥70% = ++++)” and the “Wells (in vitro immunogenicity)” value is “+ (<20% = +)”. Take “248 (GLFAGLGGAGA; listed as Homo sapiens) [compound 248]”: the “Donors (in vitro immunogenicity)” value is reported as “++++ (≥70% = ++++)” and the “Wells (in vitro immunogenicity)” value was “+ (<20% = +)”. The matching figures for “250 (RVLPPSALQSV; listed as Homo sapiens) [compound 250]”: “+++ (50%-69% = +++)” and “+ (<20% = +)”.

For “252 (YLLDMPLWYL; listed as Homo sapiens) [compound 252]”, the “Donors (in vitro immunogenicity)” value is listed as “++++ (≥70% = ++++)” and the “Wells (in vitro immunogenicity)” value is reported as “+ (<20% = +)”. Consider “254 (FLMKNSDLYGA; listed as Homo sapiens) [compound 254]”, for which the “Donors (in vitro immunogenicity)” value is reported as “++++ (≥70% = ++++)” and the “Wells (in vitro immunogenicity)” value is “+ (<20% = +)”. The matching figures for “257 (VLLNEILEQV; listed as Homo sapiens) [compound 257]”: “++++ (≥70% = ++++)” and “++ (20%-49% = ++)”.

“262 (KLAVALLAA; listed as Homo sapiens) [compound 262]”: the “Donors (in vitro immunogenicity)” value is on record as “++ (20%-49% = ++)” and the “Wells (in vitro immunogenicity)” value is listed as “++ (20%-49% = ++)”. “264 (KVFDEVIEV; listed as Homo sapiens) [compound 264]”: the “Donors (in vitro immunogenicity)” value is “+ (<20% = +)” and the “Wells (in vitro immunogenicity)” value was “+ (<20% = +)”. Take “267 (LLTDNVVKL; listed as Homo sapiens) [compound 267]”: the “Donors (in vitro immunogenicity)” value was “++++ (≥70% = ++++)” and the “Wells (in vitro immunogenicity)” value is on record as “+ (<20% = +)”. Consider “269 (ALNESLVEC; listed as Homo sapiens) [compound 269]”, for which the “Donors (in vitro immunogenicity)” value was “++++ (≥70% = ++++)” and the “Wells (in vitro immunogenicity)” value is “+ (<20% = +)”.

The next assay concerns the target HLA-A*02:01 (Homo sapiens, UniProt P04439, D140Y/D185E/D98H/E176V/E277Q/G131W/G231S/I119V/I121R/I166T/I218V/L300P/L318F/N151K/N90K/P208A/P217A/Q86G/Q94H/R138H/R169H/T345S). Nature of the assay: MHC binding assay (UV-ligand exchange, β2m ELISA). Particulars: MHC class I binding score; binding to HLA-A*02:01 ranged by peptide exchange yield (UV-ligand exchange, β2m ELISA). In outline: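 Exchange yield is an ELISA read-out: complexes diluted 100-fold, captured on streptavidin plates, detected with HRP anti-β2m and TMB at 450 nm. Standard curve from refolded HLA-A*02:01/MLA-001 (15-500 ng/ml); complexes made by UV-triggered displacement of a photolabile ligand by test peptide.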
Consider “202 (RVAFKINSV; listed as Homo sapiens) [compound 202]”, for which the Peptide exchange entry is “+++ (>50 = +++)”. Consider “203 (FLNEDISKL; listed as Homo sapiens) [compound 203]”, for which the Peptide exchange result was “+++ (>50 = +++)”. For the substance “204 (RMDEEFTKI; listed as Homo sapiens) [compound 204]”, the Peptide exchange entry is “+++ (>50 = +++)”.

Regarding “205 (SLKSKVLSV; listed as Homo sapiens) [compound 205]”, the Peptide exchange entry was “++++ (>75% = ++++)”.

As for “206 (LLYEDIPDKV; listed as Homo sapiens) [compound 206]”, the Peptide exchange result is given as “+++ (>50 = +++)”. The same measure, in the same setting: the value for “207 (VQIGDIVTV; listed as Homo sapiens) [compound 207]” was “++++ (>75% = ++++)”; that for “208 (YSDDIPHAL; listed as Homo sapiens) [compound 208]” was “++ (>20% = ++)”; that for “209 (SILDGLIHL; listed as Homo sapiens) [compound 209]” was “+++ (>50 = +++)”. The same measure, in the same setting: the value for “210 (LLPELRDWGV; listed as Homo sapiens) [compound 210]” was “+++ (>50 = +++)”; that for “212 (LLKDSIVQL; listed as Homo sapiens) [compound 212]” was “+++ (>50 = +++)”.

With “214 (VLMEMSYRL; listed as Homo sapiens) [compound 214]”, the Peptide exchange entry is reported as “+++ (>50 = +++)”. On the same count and under the same terms, the value for “215 (EVISKLYAV; listed as Homo sapiens) [compound 215]” was “+++ (>50 = +++)”; that for “216 (TLLHFLAEL; listed as Homo sapiens) [compound 216]” was “++++ (>75% = ++++)”; that for “217 (NMMSGISSV; listed as Homo sapiens) [compound 217]” was “+++ (>50 = +++)”.

As for “218 (STLHLVLRL; listed as Homo sapiens) [compound 218]”, the Peptide exchange result is recorded as “+++ (>50 = +++)”.

For “219 (FLDSEVSEL; listed as Homo sapiens) [compound 219]”, the Peptide exchange result is reported as “+++ (>50 = +++)”. Regarding “220 (SAAEPTPAV; listed as Homo sapiens) [compound 220]”, the Peptide exchange entry is listed as “+++ (>50 = +++)”. Turning to “221 (SLLPTEQPRL; listed as Homo sapiens) [compound 221]”, the Peptide exchange result is recorded as “+++ (>50 = +++)”. As for “222 (LLSEIEEHL; listed as Homo sapiens) [compound 222]”, the Peptide exchange entry is “++++ (>75% = ++++)”. The same measure, in the same setting: the entry for “223 (FLETNVPLL; listed as Homo sapiens) [compound 223]” is “+++ (>50 = +++)”; for “224 (ILDEPTNHL; listed as Homo sapiens) [compound 224]” it is “++ (>20% = ++)”.

For the substance “225 (VLFGAVITGA; listed as Homo sapiens) [compound 225]”, the Peptide exchange entry is given as “++++ (>75% = ++++)”. In the case of “226 (VLNEYFHNV; listed as Homo sapiens) [compound 226]”, the Peptide exchange result is on record as “++++ (>75% = ++++)”. For “227 (FLLEQEKTQAL; listed as Homo sapiens) [compound 227]”, the Peptide exchange entry was “++++ (>75% = ++++)”. For the substance “228 (FLNLFNHTL; listed as Homo sapiens) [compound 228]”, the Peptide exchange result was “++++ (>75% = ++++)”. On to “229 (LLEPFVHQV; listed as Homo sapiens) [compound 229]”, for which the Peptide exchange result is listed as “++++ (>75% = ++++)”. With “230 (HLDEARTLL; listed as Homo sapiens) [compound 230]”, the Peptide exchange entry is “++++ (>75% = ++++)”. For the substance “231 (KMVGDVTGA; listed as Homo sapiens) [compound 231]”, the Peptide exchange entry is given as “+++ (>50 = +++)”. For “233 (QLYNQIIKL; listed as Homo sapiens) [compound 233]”, the Peptide exchange entry was “++++ (>75% = ++++)”.

Turning to “234 (KVPEIEVTV; listed as Homo sapiens) [compound 234]”, the Peptide exchange result is given as “++++ (>75% = ++++)”. Take “235 (ALADLQEAV; listed as Homo sapiens) [compound 235]”: the Peptide exchange entry is reported as “++++ (>75% = ++++)”. “236 (GLDSGFHSV; listed as Homo sapiens) [compound 236]”: the Peptide exchange entry is listed as “++++ (>75% = ++++)”.

For “237 (VLYNESLQL; listed as Homo sapiens) [compound 237]”, the Peptide exchange entry was “++++ (>75% = ++++)”.
